Here are results for one protein from publication PMC8757444 (ACS Omega, 2021).

The series concerns the molecule itself. The series can be described thus: dynamic light scattering.

B1: Encapsulin from Thermotoga maritima (natural protein)
chain: MEFLKRSFAPLTEKQWQEIDNRAREIFKTQLYGRKFVDVEGPYGWEYAAHPLGEVEVLSDENEVVKWGLRKSLPLIELRATFTLDLWELDNLERGKPNVDLSSLEETVRKVAEFEDEVIFRGCEKSGVKGLLSFEERKIECGSTPKDLLEAIVRALSIFSKDGIEGPYTLVINTDRWINFLKEEAGHYPLEKRVEECLRGGKIITTPRIEDALVVSERGGDFKLILGQDLSIGYEDREKDAVRLFITETFTFQVVNPEALILLKF
Take B1: the binding result was “binds”.
